The target of assay [1] is VsCoV-a7 RBD-human IgG Fc fusion (VsCoV-a7 (bat MERSr-CoV from Vespertilio sinensis, Japan)). Put plainly: BLI.
The target in assay [2] is HsItaly2011 RBD-human IgG Fc fusion (HsItaly2011 (bat MERSr-CoV from Hypsugo savii, Italy)). Put plainly: BLI.

As usually defined, the Kd is the constant that tells how readily two partners part at equilibrium. Read a low Kd as a tighter complex.

In assay [1], “soluble dimeric E.fus ACE2 ectodomain (domain or fragment)” gave a Kd of 816 nM. Take “soluble dimeric R.nor ACE2 ectodomain (from UniProt Q5EGZ1 18-740) (domain or fragment)”: the Kd in assay [2] was 121 nM.

For the origin of these results see publication PMC11870458.
